These are literature values, as cited in US7186797B2, “Polypeptide conjugates with extended circulating half-lives” (Epix Pharmaceuticals, Inc., priority 2001, dated 2007).

B1: interferon γ: commercially important polypeptide-based drug currently in use (protein, UniProt P01579 24-161, looked up)
Interferon gamma: QDPYVKEAENLKKYFNAGHSDVADNGTLFLGILKNWKEESDRKIMQSQIVSFYFKLFKNFKDDQSIQKSVETIKEDMNVKFFNSNKKKRDDFEKLTNYSVTDLNVQRKAIHELIQVMAELSPAAKTGKRKRSQMLFRG
B2: granulocyte colony stimulating factor: commercially important polypeptide-based drug currently in use (protein, UniProt P09919 31-207, looked up)
Granulocyte …: TPLGPASSLPQSFLLKCLEQVRKIQGDGAALQEKLVSECATYKLCHPEELVLLGHSLGIPWAPLSSCPSQALQLAGCLSQLHSGLFLYQGLLQALEGISPELGPTLDTLQLDVADFATTIWQQMEELGMAPALQPTQGAMPAFASAFQRRAGGVLVASHLQSFLEVSYRVLRHLAQP

For this series the following is noted: unconjugated polypeptide drug, background statement.
As to “Erythropoietin: commercially important polypeptide-based drug currently in use”, the t1/2 is listed as 180 min.

As to “granulocyte macrophage colony stimulating factor: commercially important polypeptide-based drug currently in use”, the t1/2 is reported as 120 min.

“human growth hormone: commercially important polypeptide-based drug currently in use”: the t1/2 is 30 min.

As to relaxin, the t1/2 was 30 min.

For the molecule streptokinase, the t1/2 is 80 min.

Turning to “tissue plasminogen activator: commercially important polypeptide-based drug currently in use”, the t1/2 is reported as 55 min.

Consider tumor necrosis factor, for which the t1/2 is given as 18 min.

Take urokinase: the t1/2 is given as 50 min.

B1: the t1/2 is 30 min.

B2: the t1/2 is 120 min.
